Where two headings read alike, the source gives them in different places.
B1: SCC half site 36 (dsDNA)
DNA 1: ATTTTTCAAAAACCGCATCATTAACTGATAAGCAGA
DNA 2: TCTGCTTATCAGTTAATGATGCGGTTTTTGAAAAAT
B2: attB62 (dsDNA)
DNA 1: TACAGAGCATTTAAGATTATGCGAGGAGAGGCGTATCATAAGTAAAACTAAAAAATTCTGTA
DNA 2: TACAGAATTTTTTAGTTTTACTTATGATACGCCTCTCCTCGCATAATCTTAAATGCTCTGTA
B3: attB ns half site 62 (dsDNA)
DNA 1: TACAGAGCATTTAAGATTATGCGAGGAGATGGCTGAGAACACCCCTTGTGAGGTACTTCATG
DNA 2: CATGAAGTACCTCACAAGGGGTGTTCTCAGCCATCTCCTCGCATAATCTTAAATGCTCTGTA
B4: attL58 (dsDNA)
DNA 1: TACAGAGCATTTAAGATTATGCGAGGAGAAGCTTATCATAAATGATGCGGTTTTTTCA
DNA 2: TGAAAAAACCGCATCATTTATGATAAGCTTCTCCTCGCATAATCTTAAATGCTCTGTA
B5: attR72 (dsDNA)
DNA 1: TTAATTTTTCAAAAACCGCATCATTAACTGATAAGCAGAGGCGTATCATAAGTAAAACTAAAAAATTCTGTA
DNA 2: TACAGAATTTTTTAGTTTTACTTATGATACGCCTCTGCTTATCAGTTAATGATGCGGTTTTTGAAAAATTAA
B6: attSCC68 (dsDNA)
DNA 1: TTATTTTTTCAAAAACCGCATCATTAACTGATAAGCAGAAGCTTATCATAAATGATGCGGTTTTTTCA
DNA 2: TGAAAAAACCGCATCATTTATGATAAGCTTCTGCTTATCAGTTAATGATGCGGTTTTTGAAAAAATAA

Columns and labels:
Experiment in all cases: EMSA
[1] = target: T1, CcrA (Staphylococcus aureus 923 (USA300, …, UniProt Q84BN8 1-449))
T1 sequence: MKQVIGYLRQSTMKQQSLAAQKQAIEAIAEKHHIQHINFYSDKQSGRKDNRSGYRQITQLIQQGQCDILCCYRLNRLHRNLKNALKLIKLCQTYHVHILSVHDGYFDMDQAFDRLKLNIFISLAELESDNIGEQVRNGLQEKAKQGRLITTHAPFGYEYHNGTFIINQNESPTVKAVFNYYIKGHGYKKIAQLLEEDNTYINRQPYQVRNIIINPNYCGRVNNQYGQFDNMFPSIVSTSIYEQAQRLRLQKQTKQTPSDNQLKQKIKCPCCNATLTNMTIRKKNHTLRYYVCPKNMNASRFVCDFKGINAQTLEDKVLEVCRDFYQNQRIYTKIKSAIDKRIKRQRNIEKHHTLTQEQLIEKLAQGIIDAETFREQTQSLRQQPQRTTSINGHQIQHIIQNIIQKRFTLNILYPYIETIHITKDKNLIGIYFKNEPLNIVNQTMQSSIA

[2] = target: T2, CcrB (Staphylococcus aureus 923 (USA300, …, UniProt Q9XB94 1-542))
T2 sequence: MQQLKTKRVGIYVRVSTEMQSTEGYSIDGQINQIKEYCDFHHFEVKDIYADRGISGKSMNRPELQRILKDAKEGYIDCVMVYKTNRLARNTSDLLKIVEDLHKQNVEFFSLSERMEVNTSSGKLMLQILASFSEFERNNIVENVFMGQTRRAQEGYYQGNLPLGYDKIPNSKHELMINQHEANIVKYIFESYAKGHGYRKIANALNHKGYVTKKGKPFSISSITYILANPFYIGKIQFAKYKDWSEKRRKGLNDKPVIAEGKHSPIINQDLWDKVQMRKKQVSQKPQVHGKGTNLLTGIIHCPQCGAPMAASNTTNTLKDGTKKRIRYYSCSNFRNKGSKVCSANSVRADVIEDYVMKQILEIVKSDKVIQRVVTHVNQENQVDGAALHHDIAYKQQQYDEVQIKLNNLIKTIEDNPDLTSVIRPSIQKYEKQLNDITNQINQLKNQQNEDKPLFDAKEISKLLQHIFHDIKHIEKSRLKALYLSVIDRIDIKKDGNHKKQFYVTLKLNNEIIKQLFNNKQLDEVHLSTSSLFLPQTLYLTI

[3] = target: T2, CcrB; remark: listed apart in the source
[4] = target: T1, CcrA; remark: listed apart in the source
[5] = target: T1, CcrA; remark: listed apart in the source
[6] = target: T1, CcrA; remark: listed apart in the source

Row | Binder | Kd [3] | binding result [4] | binding result [6] | further results
1 | B1 | – | – | – | binding result [1]: no binding; binding result [2]: binds
2 | B2 | ~14.1 nM | binds | – | –
3 | B3 | – | – | – | binding result [5]: binds
4 | B4 | ~14.1 nM | binds | – | –
5 | B5 | ~14.1 nM | – | no binding | –
6 | B6 | ~14.1 nM | – | no binding | –

— PMC3714108
